The target in the test is T1, PP2A (Homo sapiens, UniProt P67775).
T1 construct: purchased LSBio
The experiment in a line: BLI: PP2A analyte binding to immobilized Caspase 9 (Protein A biosensor, anti-Caspase 9). The method, then:
Kinetic analysis was performed based on biolayer interferometry (BLI) by using a BLItz instrument (ForteBio, Bayonne, France) at room temperature. Prior to use, each biosensor was hydrated in sample diluent (SD: PBS1X, pH 7.0, 0.02% Tween 20, 0.1% BSA) for at least 10 min. Kinetic measurements of PP2A/Caspase 9 interactions were run with Protein A biosensors (Fortebio) and consisted of seven steps, all performed in reaction buffer, as follows: (i) initial baseline in 300 µL SD for 30 s was measured; (ii) 4 µL of mouse anti-Caspase 9 or rabbit anti-PP2A were immobilized on the sensor for 150 s at 133 nM; (iii) the immunosensor was washed with 300 µL SD for 120 s; (iv) 4 µL of purified ligand Caspase 9 at 566 nM (Origen) or PP2A at 694 nM (LSBio) were loaded on the immunosensor for 150 s; (v) the ligand-coated immunosensor was washed with 300 µL SD for 120 s; (vi) association of purified analytes diluted in SD at the mentioned concentrations was studied for 150 s in 4 µL; and (vii) dissociation step was then monitored in 300 µL SD for 120 s.
Experiments using empty immunosensors (no ligand loaded) were run as control. Sensorgrams were fit globally to a 1:1 binding model by BLItz Pro software, from which the association (kon) and dissociation (koff) rate constants and apparent affinities (KD) were calculated. […]

Read-outs that look alike come from different tables or passages of the source.

This passage reports Kd results from PMC9609871, “Binding and Kinetic Analysis of Human Protein Phosphatase PP2A Interactions with Caspase 9 Protein and the Interfering Peptide C9h” (Pharmaceutics, 2022).

T1 sequence (P67775 whole entry): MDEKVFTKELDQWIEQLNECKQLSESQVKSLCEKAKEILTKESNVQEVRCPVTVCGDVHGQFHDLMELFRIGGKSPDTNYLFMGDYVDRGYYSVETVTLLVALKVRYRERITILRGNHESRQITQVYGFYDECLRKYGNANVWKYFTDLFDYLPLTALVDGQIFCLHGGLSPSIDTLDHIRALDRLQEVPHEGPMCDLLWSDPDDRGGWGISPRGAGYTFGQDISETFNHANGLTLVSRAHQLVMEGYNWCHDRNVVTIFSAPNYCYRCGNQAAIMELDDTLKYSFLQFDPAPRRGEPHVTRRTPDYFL

B1: Caspase 9: purified Caspase 9 protein (Origen), cysteine protease, initiator of intrinsic apoptosis (protein)
chain: MDEADRRLLRRCRLRLVEELQVDQLWDALLSRELFRPHMIEDIQRAGSGSRRDQARQLIIDLETRGSQALPLFISCLEDTGQDMLASFLRTNRQAAKLSKPTLENLTPVVLRPEIRKPEVLRPETPRPVDIGSGGFGDVGALESLRGNADLAYILSMEPCGHCLIINNVNFCRESGLRTRTGSNIDCEKLRRRFSSLHFMVEVKGDLTAKKMVLALLELAQQDHGALDCCVVVILSHGCQASHLQFPGAVYGTDGCPVSVEKIVNIFNGTSCPSLGGKPKLFFIQACGGEQKDHGFEVASTSPEDESPGSNPEPDATPFQEGLRTFDQLDAISSLPTPSDIFVSYSTFPGFVSWRDPKSGSWYVETLDDIFEQWAHSEDLQSLLLRVANAVSVKGIYKQMPGCFNFLRKKLFFKTS
modifications: Commercial purified Caspase 9 (Origen)
Consider B1, for which the Kd is roughly 150 nM (discussion summary of PP2A/Caspase 9 BLI studies, in the range of, read-out: binding affinity of PP2A to Caspase 9) and roughly 100 nM (summary: close to, PP2A analyte on immobilized Caspase 9, read-out: affinity, both models).
